B1: N-terminal FLAG tagged B3GNT2 (enzyme, human, UniProt Q9NY97 1-397, looked up)
chain: MSVGRRRIKLLGILMMANVFIYFIMEVSKSSSQEKNGKGEVIIPKEKFWKISTPPEAYWNREQEKLNRQYNPILSMLTNQTGEAGRLSNISHLNYCEPDLRVTSVVTGFNNLPDRFKDFLLYLRCRNYSLLIDQPDKCAKKPFLLLAIKSLTPHFARRQAIRESWGQESNAGNQTVVRVFLLGQTPPEDNHPDLSDMLKFESEKHQDILMWNYRDTFFNLSLKEVLFLRWVSTSCPDTEFVFKGDDDVFVNTHHILNYLNSLSKTKAKDLFIGDVIHNAGPHRDKKLKYYIPEVVYSGLYPPYAGGGGFLYSGHLALRLYHITDQVHLYPIDDVYTGMCLQKLGLVPEKHKGFRTFDIEEKNKNNICSYVDLMLVHSRKPQEMIDIWSQLQSAHLKC
notes: FLAG-tagged ORF overexpressed in cells; pulled down from lysate with mouse anti-FLAG; also called N-FLAG B3GNT2; N-term FLAG; not shown: N-terminal FLAG tag
B2: N-terminal FLAG tagged B3GNT2 (enzyme, human, UniProt Q9NY97 1-397, looked up)
chain: MSVGRRRIKLLGILMMANVFIYFIMEVSKSSSQEKNGKGEVIIPKEKFWKISTPPEAYWNREQEKLNRQYNPILSMLTNQTGEAGRLSNISHLNYCEPDLRVTSVVTGFNNLPDRFKDFLLYLRCRNYSLLIDQPDKCAKKPFLLLAIKSLTPHFARRQAIRESWGQESNAGNQTVVRVFLLGQTPPEDNHPDLSDMLKFESEKHQDILMWNYRDTFFNLSLKEVLFLRWVSTSCPDTEFVFKGDDDVFVNTHHILNYLNSLSKTKAKDLFIGDVIHNAGPHRDKKLKYYIPEVVYSGLYPPYAGGGGFLYSGHLALRLYHITDQVHLYPIDDVYTGMCLQKLGLVPEKHKGFRTFDIEEKNKNNICSYVDLMLVHSRKPQEMIDIWSQLQSAHLKC
notes: FLAG-tagged ORF overexpressed in A375 cells; pulled down from the lysate with mouse anti-FLAG; also called N-FLAG B3GNT2; N-term FLAG; not shown: N-terminal FLAG tag

Tests used:
Experiment in all cases: co-IP with anti-FLAG, N-FLAG B3GNT2, mass spectrometry
[1] = target: T1, SYNM (human, UniProt O15061 1-1565)
T1 construct: also called NP_663780.2

[2] = target: T2, YTHDF2 (human, UniProt Q9Y5A9 2-579)
T2 construct: also called NP_057342.2
T2 sequence (looked up): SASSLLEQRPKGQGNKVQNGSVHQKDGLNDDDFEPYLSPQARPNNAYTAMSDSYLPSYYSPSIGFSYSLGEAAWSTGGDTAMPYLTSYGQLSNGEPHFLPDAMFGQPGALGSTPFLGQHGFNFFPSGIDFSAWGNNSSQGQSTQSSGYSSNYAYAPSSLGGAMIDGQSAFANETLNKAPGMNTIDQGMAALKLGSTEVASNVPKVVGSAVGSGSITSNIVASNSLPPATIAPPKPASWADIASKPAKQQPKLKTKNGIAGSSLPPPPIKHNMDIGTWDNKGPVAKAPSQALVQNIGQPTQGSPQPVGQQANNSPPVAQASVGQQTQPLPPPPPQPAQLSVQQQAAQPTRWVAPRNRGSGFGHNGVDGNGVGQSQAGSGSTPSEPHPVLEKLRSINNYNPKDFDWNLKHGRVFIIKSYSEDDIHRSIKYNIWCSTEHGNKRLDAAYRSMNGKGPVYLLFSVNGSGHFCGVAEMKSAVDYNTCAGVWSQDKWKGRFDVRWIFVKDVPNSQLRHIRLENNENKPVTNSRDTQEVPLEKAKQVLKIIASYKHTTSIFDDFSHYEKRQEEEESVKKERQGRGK

[3] = target: T3, PRRC2C (human, UniProt Q9Y520-4 1-2817, limits assumed)
T3 construct: also called NP_055987.2 (+10)

[4] = target: T4, PURA (human, UniProt Q00577 2-322)
T4 construct: also called NP_005850.1
T4 sequence (looked up): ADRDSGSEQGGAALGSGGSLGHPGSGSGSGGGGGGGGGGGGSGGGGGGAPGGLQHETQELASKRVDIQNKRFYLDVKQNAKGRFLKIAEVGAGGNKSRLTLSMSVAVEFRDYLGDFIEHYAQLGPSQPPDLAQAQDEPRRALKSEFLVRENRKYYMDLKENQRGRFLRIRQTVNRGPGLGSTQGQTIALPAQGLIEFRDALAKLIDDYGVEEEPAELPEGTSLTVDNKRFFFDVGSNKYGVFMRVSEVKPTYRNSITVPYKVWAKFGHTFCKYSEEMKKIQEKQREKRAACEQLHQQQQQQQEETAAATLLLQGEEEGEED

[5] = target: T5, TPM2 (human, UniProt P07951-2 1-284, limits assumed)
T5 construct: also called NP_001288155.1

Binder	co-IP mass spectrometry count [1]	co-IP mass spectrometry count [2]	co-IP/MS count, N-term FLAG [3]	co-IP/MS count, N-term FLAG [4]	co-IP/MS count, N-term FLAG [5]
B1	5	5			
B2			6	0	0
